Results on one molecule are retold here after PMC12269619, “In silico improvement of affinity for highly protective anti-malarial antibodies” (iScience, 2025).

The target in the test is T1, Biotinylated junctional peptide Pep21 (PfCSP peptide 21) (Plasmodium falciparum 3D7, UniProt Q7K740, also: biotinylated, position not given here).
T1 construct: Plasmodium falciparum circumsporozoite protein (PfCSP), junctional region, residues 101-115; source: synthetic peptide, bought: Genscript
T1 chain: NPDPNANPNVDPNAN
The test is described as follows: BLI; Octet Red384, biotinylated Pep21 on streptavidin biosensors, Fab serially diluted from 1000 to 62.5 nM, 30°C, PBS + 1% BSA, association 60 s, dissociation 180 s, global fit 1:1 Langmuir. The settings on record: both partners purified.

Ends that are not written are not given here.

B1: P3-43 Fab (m43.151 P100K_H) (Fab, V domains shown)
VH: QVHLVQSGAEVKKPGASVKVSCKASGYTFTSYAIHWVRQAPGQRLEWMGWIKGGNGNTRYSQKFQDRVTITRDTSASTAYMELSSLRSEDTAVYYCALLTVITKDDAFDIWGQGTMVTVSS
VL: not shown
notes: as the heavy chain of m5 (PDB 7LKG) with the stated change; own structure deposited here; as the light chain of m5; source: Fab produced from the antibody
Usually Kd stands for the equilibrium constant for the complex coming apart. In the case of B1, the Kd is 8.9 nM.
